From patent publication US7662583B2, “Bioreactor containing cells expressing glycosyltransferase nucleic acids isolatable from Arabidopsis” (The University of York, priority 2003, dated 2010)

B1: UGT73C6: Arabidopsis recombinant glycosyltransferase (protein, UniProt Q9ZQ95 1-495, looked up)
UDP-glycosyltransferase 73C6: MAFEKNNEPFPLHFVLFPFMAQGHMIPMVDIARLLAQRGVLITIVTTPHNAARFKNVLNRAIESGLPINLVQVKFPYQEAGLQEGQENMDLLTTMEQITSFFKAVNLLKEPVQNLIEEMSPRPSCLISDMCLSYTSEIAKKFKIPKILFHGMGCFCLLCVNVLRKNREILDNLKSDKEYFIVPYFPDRVEFTRPQVPVETYVPAGWKEILEDMVEADKTSYGVIVNSFQELEPAYAKDFKEARSGKAWTIGPVSLCNKVGVDKAERGNKSDIDQDECLEWLDSKEPGSVLYVCLGSICNLPLSQLLELGLGLEESQRPFIWVIRGWEKYKELVEWFSESGFEDRIQDRGLLIKGWSPQMLILSHPSVGGFLTHCGWNSTLEGITAGLPMLTWPLFADQFCNEKLVVQILKVGVSAEVKEVMKWGEEEKIGVLVDKEGVKKAVEELMGESDDAKERRRRAKELGESAHKAVEEGGSSHSNITFLLQDIMQLAQSNN
B2: UGT88A1: Arabidopsis recombinant glycosyltransferase, FIG. 4 (protein, listed as Arabidopsis thaliana)
chain: MGEEAIVLYPAPPIGHLVSMVELGKTILSKNPSLSIHIILVPPPYQPESTATYISSVSSSFPSITFHHLPAVTPYSSSSTSRHHHESLLLEILCFSNPSVHRTLFSLSRNFNVRAMIIDFFCTAVLDITADFTFPVYFFYTSGAACLAFSFYLPTIDETTPGKNLKDIPTVHIPGVPPMKGSDMPKAVLERDDEVYDVFIMFGKQLSKSSGIIINTFDALENRAIKAITEELCFRNIYPIGPLIVNGRIEDRNDNKAVSCLNWLDSQPEKSVVFLCFGSLGLFSKEQVIEIAVGLEKSGQRFLWVVRNPPELEKTELDLKSLLPEGFLSRTEDKGMVVKSWAPQVPVLNHKAVGGFVTHCGWNSILEAVCAGVPMVAWPLYAEQRFNRVMIVDEIKIAISMNESETGFVSSTEVEKRVQEIIGECPVRERTMAMKNAAELALTETGSSHTALTTLLQSWSPK
B3: UGT73B5: Arabidopsis recombinant glycosyltransferase (protein, UniProt Q9ZQG4 1-484, looked up)
UDP-glycosyltransferase 73B5: MNREVSERIHILFFPFMAQGHMIPILDMAKLFSRRGAKSTLLTTPINAKIFEKPIEAFKNQNPDLEIGIKIFNFPCVELGLPEGCENADFINSYQKSDSGDLFLKFLFSTKYMKQQLESFIETTKPSALVADMFFPWATESAEKLGVPRLVFHGTSFFSLCCSYNMRIHKPHKKVATSSTPFVIPGLPGDIVITEDQANVAKEETPMGKFMKEVRESETNSFGVLVNSFYELESAYADFYRSFVAKRAWHIGPLSLSNRELGEKARRGKKANIDEQECLKWLDSKTPGSVVYLSFGSGTNFTNDQLLEIAFGLEGSGQSFIWVVRKNENQGDNEEWLPEGFKERTTGKGLIIPGWAPQVLILDHKAIGGFVTHCGWNSAIEGIAAGLPMVTWPMGAEQFYNEKLLTKVLRIGVNVGATELVKKGKLISRAQVEKAVREVIGGEKAEERRLWAKKLGEMAKAAVEEGGSSYNDVNKFMEELNGRK

Assay: UGT enzyme reaction with quercetin (recombinant UGTs, HPLC)
Assay type: biochemical, Arabidopsis
Conditions: 0.5 mM quercetin, 5 mM UDP-glucose, 30° C.; for Specific activity (nkat/mg protein) 3-O-glc: quercetin glucosylated at 3-OH; for Specific activity (nkat/mg protein) 3′-O-glc: quercetin glucosylated at 3′-OH; for Specific activity (nkat/mg protein) 4′-O-glc: quercetin glucosylated at 4′-OH; for Specific activity (nkat/mg protein) 7-O-glc: quercetin glucosylated at 7-OH
How it was run: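 Recombinant Arabidopsis UGTs (2 μg) incubated with 0.5 mM quercetin and 5 mM UDP-glucose in 100 mM Tris-HCl pH 7.0 at 30 °C for 1 h. Quercetin glucosides separated from aglycone by reverse-phase C18 HPLC (acetonitrile gradient, 0.1% TFA), detected at 370 nm.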

Molecule	Specific activity (nkat/mg protein) 3-O-glc	Specific activity (nkat/mg protein) 3′-O-glc	Specific activity (nkat/mg protein) 4′-O-glc	Specific activity (nkat/mg protein) 7-O-glc
B1	0.11 nkat/mg protein	— (Activity lower than 0.02 nkat/mg protein has been considered as trace activity and is not shown in the Table.)	0.16 nkat/mg protein	0.14 nkat/mg protein
B2	0.41 nkat/mg protein	0.19 nkat/mg protein	0.76 nkat/mg protein	0.19 nkat/mg protein
B3	11.58 nkat/mg protein	— (Activity lower than 0.02 nkat/mg protein has been considered as trace activity and is not shown in the Table.)	— (Activity lower than 0.02 nkat/mg protein has been considered as trace activity and is not shown in the Table.)	— (Activity lower than 0.02 nkat/mg protein has been considered as trace activity and is not shown in the Table.)
